Measurements published in patent publication US20230057602A1 (Bristol-Myers Squibb, published 2023).

Target: T1, human B cell maturation antigen (BCMA) (human, UniProt Q02223 1-184)
T1 sequence (looked up): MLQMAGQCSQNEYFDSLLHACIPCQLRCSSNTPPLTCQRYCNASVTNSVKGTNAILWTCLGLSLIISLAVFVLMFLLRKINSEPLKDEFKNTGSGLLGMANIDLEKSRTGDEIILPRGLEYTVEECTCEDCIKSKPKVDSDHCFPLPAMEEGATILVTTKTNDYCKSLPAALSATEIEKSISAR
Test: cell-based or functional assay

IC50 (ng/ml) of redirected lysis, H929 cells co-cultured with healthy donor T cells (E:T 1:1, 72 h), DMSO control, mean of 3 donors: 3.42 ng/mL | IC50 (ng/ml) of redirected lysis, H929 cells co-cultured with healthy donor T cells (E:T 1:1, 72 h), with 1 µM dexamethasone, mean of 3 donors: 6.52 ng/mL | IC50 (ng/ml) of redirected lysis, KMS12-PE cells co-cultured with healthy donor T cells (E:T 1:1, 72 h), DMSO control, mean of 3 donors: 0.2 ng/mL | IC50 (ng/ml) of redirected lysis, KMS12-PE cells co-cultured with healthy donor T cells (E:T 1:1, 72 h), with 1 µM dexamethasone, mean of 3 donors: 3.61 ng/mL | IC50 (ng/ml) of redirected lysis, MM1S cells co-cultured with healthy donor T cells (E:T 1:1, 72 h), DMSO control, mean of 3 donors: 0.21 ng/mL | IC50 (ng/ml) of redirected lysis, MM1S cells co-cultured with healthy donor T cells (E:T 1:1, 72 h), with 1 µM dexamethasone, mean of 3 donors: 3.31 ng/mL | IC50 (ng/ml) of redirected lysis, SKMM2 cells co-cultured with healthy donor T cells (E:T 1:1, 72 h), DMSO control, mean of 3 donors: 0.09 ng/mL | IC50 (ng/ml) of redirected lysis, SKMM2 cells co-cultured with healthy donor T cells (E:T 1:1, 72 h), with 1 µM dexamethasone, mean of 3 donors: 0.34 ng/mL
B1: CC-93269 (42-TCBcv) (bispecific antibody, human IgG1, kappa, L234A L235A)
heavy 1: not shown
heavy 2: EVQLLESGGGLVQPGGSLRLSCAASGFTFSDNAMGWVRQAPGKGLEWVSAISGPGSSTYYADSVKGRFTISRDNSKNTLYLQMNSLRAEDTAVYYCAKVLGWFDYWGQGTLVTVSSASTKGPSVFPLAPSSKSTSGGTAALGCLVEDYFPEPVTVSWNSGALTSGVHTFPAVLQSSGLYSLSSVVTVPSSSLGTQTYICNVNHKPSNTKVDEKVEPKSCDKTHTCPPCPAPEAAGGPSVFLFPPKPKDTLMISRTPEVTCVVVDVSHEDPEVKFNWYVDGVEVHNAKTKPREEQYNSTYRVVSVLTVLHQDWLNGKEYKCKVSNKALGAPIEKTISKAKGQPREPQVCTLPPSRDELTKNQVSLSCAVKGFYPSDIAVEWESNGQPENNYKTTPPVLDSDGSFFLVSKLTVDKSRWQQGNVFSCSVMHEALHNHYTQKSLSLSPGK
light 1: EIVLTQSPGTLSLSPGERATLSCRASQSVSDEYLSWYQQKPGQAPRLLIHSASTRATGIPDRFSGSGSGTDFTLAISRLEPEDFAVYYCQQYGYPPDFTFGQGTKVEIKRTVAAPSVFIFPPSDRKLKSGTASVVCLLNNFYPREAKVQWKVDNALQSGNSQESVTEQDSKDSTYSLSSTLTLSKADYEKHKVYACEVTHQGLSSPVTKSFNRGEC
light 2: EVQLLESGGGLVQPGGSLRLSCAASGFTFSTYAMNWVRQAPGKGLEWVSRIRSKYNNYATYYADSVKGRFTISRDDSKNTLYLQMNSLRAEDTAVYYCVRHGNFGNSYVSWFAYWGQGTLVTVSSASVAAPSVFIFPPSDEQLKSGTASVVCLLNNFYPREAKVQWKVDNALQSGNSQESVTEQDSKDSTYSLSSTLTLSKADYEKHKVYACEVTHQGLSSPVTKSFNRGEC
